# T1: Cdc37 tagged at its N terminus with T4 lysozyme (human, UniProt Q16543 1-378)
# T1 sequence (looked up): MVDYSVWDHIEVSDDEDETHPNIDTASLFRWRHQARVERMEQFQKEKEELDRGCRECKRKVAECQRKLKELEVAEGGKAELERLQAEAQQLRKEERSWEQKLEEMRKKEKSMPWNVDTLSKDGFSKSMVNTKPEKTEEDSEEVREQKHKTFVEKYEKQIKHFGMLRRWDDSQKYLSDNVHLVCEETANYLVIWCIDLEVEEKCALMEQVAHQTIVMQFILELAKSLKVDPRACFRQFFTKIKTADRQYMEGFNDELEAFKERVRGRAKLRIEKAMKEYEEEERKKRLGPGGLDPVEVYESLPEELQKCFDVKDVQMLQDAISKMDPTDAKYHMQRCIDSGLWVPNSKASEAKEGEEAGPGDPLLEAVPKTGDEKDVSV
# T2: Cdc37 of the yeast complex with T4 lysozyme-tagged Cdk4 (human, UniProt Q16543 1-378)
# T2 sequence (looked up): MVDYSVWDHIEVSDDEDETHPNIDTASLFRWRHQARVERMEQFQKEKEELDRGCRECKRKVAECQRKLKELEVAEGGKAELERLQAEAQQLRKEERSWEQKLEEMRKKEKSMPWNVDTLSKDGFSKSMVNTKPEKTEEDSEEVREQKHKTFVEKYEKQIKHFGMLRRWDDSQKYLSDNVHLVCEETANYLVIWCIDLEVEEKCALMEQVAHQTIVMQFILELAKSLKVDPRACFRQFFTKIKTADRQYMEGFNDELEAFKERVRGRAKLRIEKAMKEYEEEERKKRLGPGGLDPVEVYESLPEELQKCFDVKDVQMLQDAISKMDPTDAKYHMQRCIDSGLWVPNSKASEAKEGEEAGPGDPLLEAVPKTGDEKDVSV
# Assays:
# [1] = target: T1, Cdc37 tagged at its N terminus with T4 …; assay: cryo-EM structure
# [2] = target: T2, Cdc37 of the yeast complex with T4 …; assay: cryo-EM structure
Binder,binding result [1],binding result [2]
"Cdk4 of the yeast complex with T4 lysozyme-tagged Cdc37 (natural protein, human, UniProt P11802 1-303, looked up) MATSRYEPVAEIGVGAYGTVYKARDPHSGHFVALKSVRVPNGGGGGGGLPISTVREVALLRRLEAFEHPNVVRLMDVCATSRTDREIKVTLVFEHVDQDLRTYLDKAPPPGLPAETIKDLMRQFLRGLDFLHANCIVHRDLKPENILVTSGGTVKLADFGLARIYSYQMALTPVVVTLWYRAPEVLLQSTYATPVDMWSVGCIFAEMFRRKPLFCGNSEADQLGKIFDLIGLPPEDDWPRDVSLPRGAFPPRGPRPVQSVVPEMEESGAQLLLEMLTFNPHKRISAFRALQHSYLHKDEGNPE",binds,
"Cdk4 tagged at its C terminus with T4 lysozyme (natural protein, human, UniProt P11802 1-303, looked up) MATSRYEPVAEIGVGAYGTVYKARDPHSGHFVALKSVRVPNGGGGGGGLPISTVREVALLRRLEAFEHPNVVRLMDVCATSRTDREIKVTLVFEHVDQDLRTYLDKAPPPGLPAETIKDLMRQFLRGLDFLHANCIVHRDLKPENILVTSGGTVKLADFGLARIYSYQMALTPVVVTLWYRAPEVLLQSTYATPVDMWSVGCIFAEMFRRKPLFCGNSEADQLGKIFDLIGLPPEDDWPRDVSLPRGAFPPRGPRPVQSVVPEMEESGAQLLLEMLTFNPHKRISAFRALQHSYLHKDEGNPE",,binds

# Source: publication PMC5373496 (Science (New York, N.Y.), 2016)
